T1: intestinal PYY-preferring receptors (Rattus norvegicus, UniProt Q9ERC0)
T1 sequence (Q9ERC0 1-381): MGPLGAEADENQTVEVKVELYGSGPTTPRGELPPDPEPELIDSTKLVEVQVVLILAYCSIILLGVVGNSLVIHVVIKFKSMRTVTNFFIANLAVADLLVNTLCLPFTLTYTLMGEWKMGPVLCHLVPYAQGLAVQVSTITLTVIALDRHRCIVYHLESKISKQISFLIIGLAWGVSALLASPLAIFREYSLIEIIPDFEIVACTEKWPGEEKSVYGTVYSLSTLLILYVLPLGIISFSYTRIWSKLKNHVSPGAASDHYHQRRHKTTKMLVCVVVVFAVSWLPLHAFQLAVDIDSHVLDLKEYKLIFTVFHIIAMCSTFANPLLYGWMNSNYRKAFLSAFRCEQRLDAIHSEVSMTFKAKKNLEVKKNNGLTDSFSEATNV

B1: N-α-Ac-[Bth^27 ]PYY(22-36) (peptide)
peptide: ASLRHXLNLVTRQRY
HELM: PEPTIDE1{[ac].A.S.L.R.H.[O=C([C@H](Cc1csc2ccccc12)N[*:1])[*:2]].L.N.L.V.T.R.Q.R.Y.[am]}$$$$V2.0
SMILES: CC(=O)N[C@@H](C)C(=O)N[C@@H](CO)C(=O)N[C@@H](CC(C)C)C(=O)N[C@@H](CCCNC(=N)N)C(=O)N[C@@H](Cc1c[nH]cn1)C(=O)N[C@@H](Cc1csc2ccccc12)C(=O)N[C@@H](CC(C)C)C(=O)N[C@@H](CC(N)=O)C(=O)N[C@@H](CC(C)C)C(=O)N[C@H](C(=O)N[C@H](C(=O)N[C@@H](CCCNC(=N)N)C(=O)N[C@@H](CCC(N)=O)C(=O)N[C@@H](CCCNC(=N)N)C(=O)N[C@@H](Cc1ccc(O)cc1)C(N)=O)[C@@H](C)O)C(C)C
B2: N-α-Ac-[p.ClPhe^26 ]PYY(22-36) (peptide)
peptide: ASLRXYLNLVTRQRY
HELM: PEPTIDE1{[ac].A.S.L.R.[O=C([C@H](Cc1ccc(Cl)cc1)N[*:1])[*:2]].Y.L.N.L.V.T.R.Q.R.Y.[am]}$$$$V2.0
SMILES: CC(=O)N[C@@H](C)C(=O)N[C@@H](CO)C(=O)N[C@@H](CC(C)C)C(=O)N[C@@H](CCCNC(=N)N)C(=O)N[C@@H](Cc1ccc(Cl)cc1)C(=O)N[C@@H](Cc1ccc(O)cc1)C(=O)N[C@@H](CC(C)C)C(=O)N[C@@H](CC(N)=O)C(=O)N[C@@H](CC(C)C)C(=O)N[C@H](C(=O)N[C@H](C(=O)N[C@@H](CCCNC(=N)N)C(=O)N[C@@H](CCC(N)=O)C(=O)N[C@@H](CCCNC(=N)N)C(=O)N[C@@H](Cc1ccc(O)cc1)C(N)=O)[C@@H](C)O)C(C)C
B3: N-α-Ac-[Thz^26, Phe^27 ]PYY(22-36) (peptide)
peptide: ASLRXFLNLVTRQRY
HELM: PEPTIDE1{[ac].A.S.L.R.[O=C([C@H](Cc1cscn1)N[*:1])[*:2]].F.L.N.L.V.T.R.Q.R.Y.[am]}$$$$V2.0
SMILES: CC(=O)N[C@@H](C)C(=O)N[C@@H](CO)C(=O)N[C@@H](CC(C)C)C(=O)N[C@@H](CCCNC(=N)N)C(=O)N[C@@H](Cc1cscn1)C(=O)N[C@@H](Cc1ccccc1)C(=O)N[C@@H](CC(C)C)C(=O)N[C@@H](CC(N)=O)C(=O)N[C@@H](CC(C)C)C(=O)N[C@H](C(=O)N[C@H](C(=O)N[C@@H](CCCNC(=N)N)C(=O)N[C@@H](CCC(N)=O)C(=O)N[C@@H](CCCNC(=N)N)C(=O)N[C@@H](Cc1ccc(O)cc1)C(N)=O)[C@@H](C)O)C(C)C
B4: N-α-Ac-[Phe^27,Thi^36 ]PYY(22-36) (peptide)
peptide: ASLRHFLNLVTRQRX
HELM: PEPTIDE1{[ac].A.S.L.R.H.F.L.N.L.V.T.R.Q.R.[O=C([C@H](Cc1cccs1)N[*:1])[*:2]].[am]}$$$$V2.0
SMILES: CC(=O)N[C@@H](C)C(=O)N[C@@H](CO)C(=O)N[C@@H](CC(C)C)C(=O)N[C@@H](CCCNC(=N)N)C(=O)N[C@@H](Cc1c[nH]cn1)C(=O)N[C@@H](Cc1ccccc1)C(=O)N[C@@H](CC(C)C)C(=O)N[C@@H](CC(N)=O)C(=O)N[C@@H](CC(C)C)C(=O)N[C@H](C(=O)N[C@H](C(=O)N[C@@H](CCCNC(=N)N)C(=O)N[C@@H](CCC(N)=O)C(=O)N[C@@H](CCCNC(=N)N)C(=O)N[C@@H](Cc1cccs1)C(N)=O)[C@@H](C)O)C(C)C

Square brackets hold non-standard residues; d marks the D form. Ends that are not written are not given here. Peptide text beside a SMILES is read from it. Bip = N[C@@H](Cc1ccc(-c2ccccc2)cc1)C(=O)O; Phe(4-Cl) = N[C@@H](Cc1ccc(Cl)cc1)C(=O)O; 2Nal = N[C@@H](Cc1ccc2ccccc2c1)C(=O)O; Tic = O=C(O)[C@@H]1Cc2ccccc2CN1; 2Thi = N[C@@H](Cc1cccs1)C(=O)O Some results are limits rather than exact numbers.

The first assay addresses T1, intestinal PYY-preferring receptors.
Assay: not given
Conditions: BINDING IC50 (nM), Table 1; 125I-PYY, rat jejunal membranes; mean of three separate experiments.
Usually IC50 stands for the midpoint of a concentration-inhibition curve. “AALRHYLNLVARQRY-NH2 [[Ala^23,32]PYY(22-36), A [Ala] L R H Y L N L V [Ala] R Q R Y-NN2]” gave an IC50 greater than 10000 nM.

Take “ASLRHYENLVTRQRY-NH2 [[Glu^28]PYY(22-36), A S L R H Y [Glu] N L V T R Q R Y--NH2]”: the IC50 was found to be 199 nM.

In turn, “ASLRHYLNLVARQRY-NH2 [[Ala^32]PYY(22-36), A S L R H Y L N L V [Ala] R Q R Y--NH2]” came in with an IC50 of 71 nM.

In the case of “Ac-ASLRHFLNLVTRQRY-NH2 [N-α-Ac-[Phe^27]PYY(22-36)] [listing 1 of 2 here]”, the IC50 came out at 0.8 nM.

Staying with this assay, now noted: IC50 (nM), Table 2; receptor binding data.
On to `CC(=O)N[C@@H](C)C(=O)N[C@@H](CO)C(=O)N[C@@H](CC(C)C)C(=O)N[C@@H](CCCNC(=N)N)C(=O)N[C@@H](Cc1c[nH]cn1)C(=O)N[C@@H](Cc1cccs1)C(=O)N[C@@H](CC(C)C)C(=O)N[C@@H](CC(N)=O)C(=O)N[C@@H](CC(C)C)C(=O)N[C@H](C(=O)N[C@H](C(=O)N[C@@H](CCCNC(=N)N)C(=O)N[C@@H](CCC(N)=O)C(=O)N[C@@H](CCCNC(=N)N)C(=O)N[C@@H](Cc1ccc(O)cc1)C(N)=O)[C@@H](C)O)C(C)C` [Peptide 916] (HELM PEPTIDE1{[ac].A.S.L.R.H.[O=C([C@H](Cc1cccs1)N[*:1])[*:2]].L.N.L.V.T.R.Q.R.Y.[am]}$$$$V2.0), for which the IC50 stood at 0.095 nM.

Take “Ac-ASLRHWLNLVTRQRY-NH2 [Peptide 915, N-α-Ac-A S L R H [Trp] L N L V T R Q R Y--NH2]”: the IC50 was determined as 0.1 nM.

The same assay, now with this note: IC50 (nM), Table 3; binding activity.
Turning to `CC(=O)N[C@@H](C)C(=O)N[C@@H](CO)C(=O)N[C@@H](CC(C)C)C(=O)N[C@@H](CCCNC(=N)N)C(=O)N[C@@H](Cc1cnc[nH]1)C(=O)N[C@@H](Cc1ccccc1)C(=O)N[C@@H](CC(C)C)C(=O)N[C@@H](CC(N)=O)C(=O)N[C@@H](CC(C)C)C(=O)N[C@H](C(=O)N[C@H](C(=O)N[C@@H](CCCNC(=N)N)C(=O)N[C@@H](CCC(N)=O)C(=O)N[C@@H](CCCNC(=N)N)C(=O)N[C@@H](Cc1cccs1)C(N)=O)[C@@H](C)O)C(C)C` [Peptide 917, M-α-Ac-A S L R H (Phel L N L V T R Q R [Thi]-NH2] (HELM PEPTIDE1{[ac].A.S.L.R.H.F.L.N.L.V.T.R.Q.R.[O=C([C@H](Cc1cccs1)N[*:1])[*:2]].[am]}$$$$V2.0), the IC50 came out at 4.46 nM.

In the case of “Ac-FSLRHFLNLVTRQRY-NH2 [Peptide 908, N-α-Ac-[Phe]S L R N [Phe] L N L V T R Q R Y--NH2]”, the IC50 came out at 11.2 nM. This IC50 is about 2.5-fold higher than that of the molecule before.

The molecule “Ac-YSLRHFLNLVTRQRY-NH2 [Peptide 910, N-α-Ac-[Tyr] S L R H [Phe] L N L V T R Q R Y--NH2]” returned an IC50 of 0.1 nM. Compared with the last molecule, the IC50 is about 110-fold lower.

For a further assay, the target named is PYY receptor of rat jejunal epithelial plasma membranes (rat). In words: competition with 125I-PYY on rat jejunal membranes.
Details: not given
N-α-Ac-[Phe^27 ]PYY(25-36) (peptide) had an IC50 of 0.15 nM. This counts as sub-nanomolar.

As for Ac-ASLRH[Bip]LNLVTRQRY-NH2 [N-α-Ac-[Bip^27 ]PYY(22-36)], the IC50 is 4.46 nM.

Molecule Ac-ASLRHWLNLVTRQRY-NH2 [N-α-Ac-[Trp^27 ]PYY(22-36)] yielded an IC50 of 0.1 nM.

The molecule Ac-ASLRH[2Nal]LNLVTRQRY-NH2 [N-α-Ac-[Nal^27 ]PYY(22-36)] had an IC50 of 0.39 nM.

The molecule Ac-ASLRH[2Thi]LNLVTRQRY-NH2 [N-α-Ac-[Thi^27 ]PYY(22-36)] gave an IC50 of 0.095 nM. Compared with the last molecule, the IC50 is about 4.1-fold lower.

Take Ac-ASLRH[Tic]LNLVTRQRY-NH2 [N-α-Ac-[Tic^27 ]PYY(22-36)]: the IC50 is 4.5 nM.

In the case of B1, the IC50 stood at 0.22 nM. This IC50 lies about 20-fold lower than the previous one.

The next assay shares this target.
Assay: not given
Details: not given
In the case of B2, the SCC EC50 stood at 124 nM.

Ac-ASLRHYENLVTRQRY-NH2 [N-α-Ac-[Glu^28 ]PYY(22-36)] gave an SCC EC50 of 3000 nM.

Another assay shares this target. The experiment in a line: competition with 0.05 nM 125I-PYY on rat jejunal epithelial plasma membranes.
Details: not given
NPY (neuropeptide Y) (ligand) returned a half-maximal inhibitory concentration (IC50) of 2 nM.

Regarding PYY(22-36) (peptide), the IC50 came to 4 nM.

With [im-DNP-His^26 ]PYY (peptide), the IC50 is 4 nM.

Turning to AALRHYLNLVARQRY-NH2 [[Ala^23,32 ]PYY(22-36)], the IC50 was greater than 10000 nM.

With B2, the IC50 is 50 nM.

For ASLRHYENLVTRQRY-NH2 [[Glu^28 ]PYY(22-36)], the IC50 came to 199 nM.

Take Ac-ASLRHYENLVTRQRY-NH2 [N-α-Ac-[Glu^28 ]PYY(22-36)]: the IC50 was found to be 44.7 nM.

As to ASLRHYLNLVARQRY-NH2 [[Ala^32 ]PYY(22-36)], the 50% inhibitory concentration (IC50) was found to be 71 nM.

A further assay deals with rat jejunal mucosa. The experiment in a line: Short circuit current (SCC) in voltage clamped rat jejunal mucosa (antisecretory effect). Type of assay: cell-based. The conditions noted are these: 1.4 μM, n=7. Here is the method:
The antisecretory effects of the peptides were investigated by measuring the short-circuit current (SCC) in rat jejunal mucosa mounted in a Ussing chamber and automatically voltage clamped as described by Cox et al. (J. Physiol. supra). Briefly, strips of mucosa were placed between two halves of perspex Ussing chambers (window size, 0.6 cm^2) containing oxygenated (95% O2 /5% CO2) Krebs-Henseleit solution (NaCl, 117 mM, KCl 4.7 mM, CaCl2, 2.5 mM; MgSO4 1.2 mM, NaHCO3 24.8 mM and glucose 11.1 mM), pH 7.4, 37° C. […] Once a stable baseline SCC was reached, peptides were added to the basolateral reservoir only, and cumulative concentration-response profiles constructed.
In the case of “Ac-ASLRHFLNLVTRQRY-NH2 [N-α-Ac-[Phe^27]PYY(22-36)] [listing 2 of 2 here]”, the “maximal inhibitory response (change in SCC)” value is -12.0±1.3 μA/0.6 cm^2.

Still in this assay, the particulars now being: Table 1; reduction of baseline SCC, rat jejunum; mean of three separate experiments.
In general, EC50 refers to the concentration that produces a half-maximal response. A high value points to lower potency in that assay. With “Ac-ASLRHFLNLVTRQRY-NH2 [N-α-Ac-[Phe^27]PYY(22-36)] [listing 2 of 2 here]”, the EC50 was determined as 15.1 nM.

Still in this assay, the particulars now being: relative to PYY.
Turning to “Ac-ASLRHFLNLVTRQRY-NH2 [N-α-Ac-[Phe^27]PYY(22-36)] [listing 2 of 2 here]”, the “times less potent than the intact hormone (antisecretory potency)” value is on record as 9 times.

The next assay addresses PYY receptor of rat jejunal epithelial plasma membranes (rat). The experiment in a line: competitive binding, done as described above (125I-PYY, rat jejunal membranes).
Details: not given
FSLRHFLNLVTRQRY (not fully specified; N-terminal acetyl; C-terminal amide) [N-α-Ac-[Phe^22,27 ]PYY(22-36)]: the IC50 turned out to be 11.2 nM. This counts as double-digit nanomolar.

Turning to Ac-YSLRHFLNLVTRQRY-NH2 [N-α-Ac-[Tyr^22, Phe^27 ]PYY(22-36)], the IC50 was 0.1 nM.

B3 yielded an IC50 of 4.5 nM. This IC50 is about 45-fold higher than that of the molecule before.

On to B4, for which the IC50 came out at 4.46 nM.

Ac-ASLRH[Phe(4-Cl)]LNLVTRQRY-NH2 [N-α-Ac-[Pcp^27 ]PYY(22-36)] registered an IC50 of 1.58 nM.

The values above are taken from US5604203A, “Analogs of peptide YY and uses thereof” (University of Cincinnati, priority 1994, dated 1997).
